Experimental data reported in patent US20240199761A1 (AstraZeneca / MedImmune, published 2024).
Numbering of substitutions follows the chain as printed. Each block holds one binder with its values, some of them ahead of it.

Key:
huFcRn = molecular target: T1, huFcRn (human, UniProt P55899 24-297; P61769 21-119, limits assumed); experiment: huFcRn affinity chromatography, pH gradient elution
T1 construct: also called human neonatal Fc receptor

[1] = molecular target: T2, recombinant human PAD2 (biotinylated) (human, UniProt Q9Y2J8 1-665, enzymatically biotinylated on an Avi-tag); experiment: SPR (Biacore), biotinylated PAD2 on CM5/C1-streptavidin, Fab flowed over; average
T2 construct: not shown: Avi-tag (and any other tags); said to be at the C-terminus in this earlier assay

[2] = molecular target: T3, recombinant mouse PAD2 (biotinylated) (mouse, UniProt Q08642 1-673, enzymatically biotinylated on an Avi-tag); experiment: as above
T3 construct: not shown: Avi-tag (and any other tags); said to be at the C-terminus in this earlier assay

recombinant human PAD2 = molecular target: T4, recombinant human PAD2 (human, UniProt Q9Y2J8 1-665, enzymatically biotinylated on an Avi-tag); experiment: SPR (Biacore 8K), biotinylated PAD2 on streptavidin chip, Fab flowed over
T4 construct: Recombinant, biotinylated on an Avi-tag and captured on streptavidin; also called peptidyl arginine deiminase 2

recombinant mouse PAD2 = molecular target: T5, recombinant mouse PAD2 (mouse, UniProt Q08642 1-673, enzymatically biotinylated on an Avi-tag); experiment: as above
T5 construct: Recombinant, biotinylated on an Avi-tag

HPLC retention (huFcRn): 22.8 min
Relative retention (huFcRn): 0.753
B1: Clone 10 (Bis3, TM-YTE; Fab anti-PAD2, scFv anti-PAD4) (bispecific antibody, human IgG1, lambda)
heavy: not shown
light: SYVLTQPPSVSVSPGQTASITCSGDKVGDKYVSWYQQKPGQSPVLVIYQDSQRPSGIPERFSGSNSGNTATLTISGTQAMDEADYYCQTWAPDVLLFGSGTKVTVLGQPKAAPSVTLFPPSSEELQANKATLVCLISDFYPGAVTVAWKADSSPVKAGVETTTPSKQSNNKYAASSYLSLTPEQWKSHRSYSCQVTHEGSTVEKTVAPTECS
notes: Bivalent bispecific IgG-HC-scFv; also called PAD240010

HPLC retention (huFcRn): 23.3 min
Relative retention (huFcRn): 0.828
B2: Clone 09 (Bis3, TM-YTE; Fab anti-PAD4, scFv anti-PAD2) (bispecific antibody, human IgG1, lambda)
heavy: not shown
light: QSALTQPRSVSGSPGQSVTISCTGTSGDVGRYSHVSWYQQHPGKAPKLIIYNVYERPSGVPDRFSGSKSGNTASLTISGLQAEDEADYYCSSHSRSSTPVLFGGGTKLTVLGQPKAAPSVTLFPPSSEELQANKATLVCLISDFYPGAVTVAWKADSSPVKAGVETTTPSKQSNNKYAASSYLSLTPEQWKSHRSYSCQVTHEGSTVEKTVAPTECS
notes: Bivalent bispecific IgG-HC-scFv; also called PAD240009

Kd [1]: 6.73 nM
koff [1]: 0.000629 s⁻¹
kon [1]: 93000 M⁻¹ s⁻¹
Kd [2]: 2.35 nM
koff [2]: 0.000288 s⁻¹
kon [2]: 123000 M⁻¹ s⁻¹
B3: PAD40175 hIgG1 ngl-2 (Fab, V domains shown)
VH: not shown
VL: QAVLTQPSSVSVAPGKTATITCGGDNIGSKSVHWYQQKPGQAPLLVIFYDTDRPSGVPERFSGSNSGNTATLTISRVEAGDEADYYCQVWDSNGDHYVFGTGTKLTVL
notes: Anti-PAD2; tested as Fab

Kd (recombinant human PAD2): 6.73 nM
Kd (recombinant mouse PAD2): 2.35 nM
B4: PAD40175 hIgG1 ngl-2 (anti-PAD2) Fab (Fab, V domains shown)
VH: not shown
VL: B3 VL
notes: Tested as Fab

Kd [1]: 0.218 nM
koff [1]: 0.000221 s⁻¹
kon [1]: 1.01e+06 M⁻¹ s⁻¹
Kd [2]: 0.794 nM
koff [2]: 0.000766 s⁻¹
kon [2]: 971000 M⁻¹ s⁻¹
B5: 141LO0035 hIgG1 pgl-4 (Germlined) Clone 22 (Fab, V domains shown)
VH: not shown
VL: SYVLTQPPSVSVSPGQTASITCSGDKVGDKYVSWYQQKPGQSPVLVIYQDSQRPSGIPERFSGSNSGNTATLTISGTQAMDEADYYCQTWAPDVLLFGSGTKVTVL
notes: Anti-PAD2 lead; tested here as Fab

Kd (recombinant human PAD2): 0.218 nM
Kd (recombinant mouse PAD2): 0.794 nM
B6: 141LO0035 hIgG1 pgl-4 (Clone 22, anti-PAD2) Fab (Fab, V domains shown)
VH: not shown
VL: B5 VL
notes: Tested as Fab

Kd (recombinant human PAD2): 0.185 nM
Kd (recombinant mouse PAD2): 0.571 nM
B7: 141LO0035 hIgG1 ngl-2 (anti-PAD2) Fab (Fab, V domains shown)
VH: not shown
VL: B5 VL with S42A, I47M, F61I, M80V, D84E
notes: Tested as Fab

Kd (recombinant human PAD2): 2.14 nM
Kd (recombinant mouse PAD2): 13.2 nM
B8: 141LO0030 hIgG1 pgl-4 (anti-PAD2) Fab (Fab, V domains shown)
VH: not shown
VL: B5 VL with A91Y, P92D, V94A, L96T
notes: Tested as Fab

Kd (recombinant human PAD2): 3.9 nM
Kd (recombinant mouse PAD2): 17.8 nM
B9: 141LO0039 hIgG1 pgl-4 (anti-PAD2) Fab (Fab, V domains shown)
VH: not shown
VL: B5 VL with Q88H, W90Y, P92E, V94E, L95Y, L96V
notes: Tested as Fab

Kd [1]: 2.14 nM
koff [1]: 0.00101 s⁻¹
kon [1]: 474000 M⁻¹ s⁻¹
Kd [2]: 13.2 nM
koff [2]: 0.00484 s⁻¹
kon [2]: 378000 M⁻¹ s⁻¹
B10: 141LO0030 hIgG1 pgl-4 (Germlined) (Fab, V domains shown)
VH: not shown
VL: B5 VL with A91Y, P92D, V94A, L96T
notes: Anti-PAD2; tested as Fab

Kd [1]: 3.9 nM
koff [1]: 0.00245 s⁻¹
kon [1]: 629000 M⁻¹ s⁻¹
Kd [2]: 17.8 nM
koff [2]: 0.0125 s⁻¹
kon [2]: 722000 M⁻¹ s⁻¹
B11: 141LO0039 hIgG1 pgl-4 (Germlined) (Fab, V domains shown)
VH: not shown
VL: B5 VL with Q88H, W90Y, P92E, V94E, L95Y, L96V
notes: Anti-PAD2; tested as Fab

Kd [1]: 261 nM
koff [1]: 0.111 s⁻¹
kon [1]: 445000 M⁻¹ s⁻¹
B12: PAD40141 hIgG1 ngl-2 (Parent) (Fab, V domains shown)
VH: not shown
VL: SYVLTQPPSVSVSPGQTASITCSGDKVGDKYVSWYQQKPGQAPVLVMYQDSQRPSGIPERISGSNSGNTATLTISGTQAVDEAEYYCQTWDSNEYVFGSGTKVTVL
notes: Anti-PAD2; tested as Fab

Kd (recombinant human PAD2): 261 nM
B13: PAD40141 hIgG1 ngl-2 (anti-PAD2, parent) Fab (Fab, V domains shown)
VH: not shown
VL: B12 VL
notes: Tested as Fab

Kd [1]: 0.364 nM
koff [1]: 0.000675 s⁻¹
kon [1]: 1.85e+06 M⁻¹ s⁻¹
B14: 141LO0055 hIgG1 ngl-2 (Fab, V domains shown)
VH: not shown
VL: B12 VL with T89S, W90E, D91N, S92A, N93V
notes: Anti-PAD2; tested as Fab

Kd (recombinant human PAD2): 0.949 nM
B15: 141LO0030 hIgG1 ngl-2 (anti-PAD2) Fab (Fab, V domains shown)
VH: not shown
VL: B12 VL with D91Y, S92D, N93D, E94A, Y95L, V96T
notes: Tested as Fab

Kd (recombinant human PAD2): 2.78 nM
Kd (recombinant mouse PAD2): 38.5 nM
B16: 141LO0002 hIgG1 pgl-4 (anti-PAD2) Fab (Fab, V domains shown)
VH: not shown
VL: B5 VL with Q88E, T89V, W90G, A91V, P92D, D93Y, V94E, L95Y, L96V

Kd [1]: 0.949 nM
koff [1]: 0.000613 s⁻¹
kon [1]: 647000 M⁻¹ s⁻¹
B17: 141LO0030 hIgG1 ngl-2 (Fab, V domains shown)
VH: not shown
VL: B12 VL with D91Y, S92D, N93D, E94A, Y95L, V96T
notes: Anti-PAD2; tested as Fab

Kd (recombinant human PAD2): 3.78 nM
B18: 141LO0002 hIgG1 ngl-2 (anti-PAD2) Fab (Fab, V domains shown)
VH: not shown
VL: B12 VL with Q88E, T89V, W90G, D91V, S92D, N93Y

Kd [1]: 1.87 nM
koff [1]: 0.00157 s⁻¹
kon [1]: 840000 M⁻¹ s⁻¹
B19: 141LO0039 hIgG1 ngl-2 (Fab, V domains shown)
VH: not shown
VL: B12 VL with Q88H, W90Y, D91A, S92E, N93D
notes: Anti-PAD2; tested as Fab

Kd [1]: 2.78 nM
koff [1]: 0.00314 s⁻¹
kon [1]: 1.13e+06 M⁻¹ s⁻¹
Kd [2]: 38.5 nM
koff [2]: 0.0256 s⁻¹
kon [2]: 692000 M⁻¹ s⁻¹
B20: 141LO0002 hIgG1 pgl-4 (Germlined) (Fab, V domains shown)
VH: not shown
VL: B5 VL with Q88E, T89V, W90G, A91V, P92D, D93Y, V94E, L95Y, L96V

Kd [1]: 3.31 nM
koff [1]: 0.0035 s⁻¹
kon [1]: 1.07e+06 M⁻¹ s⁻¹
Kd [2]: 33.8 nM
koff [2]: 0.026 s⁻¹
kon [2]: 777000 M⁻¹ s⁻¹
B21: 141LO0002 hIgG1 pgl-3 (Germlined) (Fab, V domains shown)
VH: not shown
VL: B5 VL with Q88E, T89V, W90G, A91V, P92D, D93Y, V94E, L95Y, L96V
notes: Anti-PAD2; tested as Fab

Kd (recombinant human PAD2): 1.87 nM
B22: 141LO0039 hIgG1 ngl-2 (anti-PAD2) Fab (Fab, V domains shown)
VH: not shown
VL: B12 VL with Q88H, W90Y, D91A, S92E, N93D
notes: Tested as Fab

Kd (recombinant human PAD2): 0.364 nM
B23: 141LO0055 hIgG1 ngl-2 (anti-PAD2) Fab (Fab, V domains shown)
VH: not shown
VL: B12 VL with T89S, W90E, D91N, S92A, N93V
notes: Tested as Fab

Kd [1]: 3.78 nM
koff [1]: 0.00328 s⁻¹
kon [1]: 880000 M⁻¹ s⁻¹
B24: 141LO0002 hIgG1 ngl-2 (Fab, V domains shown)
VH: not shown
VL: B12 VL with Q88E, T89V, W90G, D91V, S92D, N93Y

Kd (recombinant human PAD2): 3.31 nM
Kd (recombinant mouse PAD2): 33.8 nM
B25: 141LO0002 hIgG1 pgl-3 (anti-PAD2) Fab (Fab, V domains shown)
VH: not shown
VL: B5 VL with Q88E, T89V, W90G, A91V, P92D, D93Y, V94E, L95Y, L96V
notes: Tested as Fab

Kd [1]: 0.185 nM
koff [1]: 0.000192 s⁻¹
kon [1]: 1.04e+06 M⁻¹ s⁻¹
Kd [2]: 0.571 nM
koff [2]: 0.000646 s⁻¹
kon [2]: 1.14e+06 M⁻¹ s⁻¹
B26: 141LO0035 hIgG1 ngl-2 (Fab, V domains shown)
VH: not shown
VL: B5 VL with S42A, I47M, F61I, M80V, D84E
notes: Anti-PAD2; tested as Fab
